US20120270784A1 (THERATECHNOLOGIES, published 2012)

T1: human GRF receptor (human, UniProt Q02643 23-423)
T1 sequence (looked up): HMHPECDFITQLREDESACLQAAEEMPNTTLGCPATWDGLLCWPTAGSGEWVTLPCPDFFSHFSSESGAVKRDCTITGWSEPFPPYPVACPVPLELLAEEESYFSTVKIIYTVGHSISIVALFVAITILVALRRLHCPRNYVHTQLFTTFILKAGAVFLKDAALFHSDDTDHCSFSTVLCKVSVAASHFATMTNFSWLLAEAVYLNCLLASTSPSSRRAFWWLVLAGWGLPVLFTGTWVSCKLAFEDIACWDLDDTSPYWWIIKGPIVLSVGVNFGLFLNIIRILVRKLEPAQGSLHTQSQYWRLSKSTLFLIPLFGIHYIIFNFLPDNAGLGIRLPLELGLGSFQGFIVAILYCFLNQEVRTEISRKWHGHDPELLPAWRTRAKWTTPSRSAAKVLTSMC

B1: Y-a-DAIFTDSYRKVLAQLKARQDILS-r-NH2 (SEQ ID NO: 21) (peptide)
peptide: YXDAIFTDSYRKVLAQLKARQDILSX
HELM: PEPTIDE1{Y.[dA].D.A.I.F.T.D.S.Y.R.K.V.L.A.Q.L.K.A.R.Q.D.I.L.S.[dR].[am]}$$$$V2.0; N-terminus assumed
SMILES: CC[C@H](C)[C@H](NC(=O)[C@H](C)NC(=O)[C@H](CC(=O)O)NC(=O)[C@@H](C)NC(=O)[C@@H](N)Cc1ccc(O)cc1)C(=O)N[C@@H](Cc1ccccc1)C(=O)N[C@H](C(=O)N[C@@H](CC(=O)O)C(=O)N[C@@H](CO)C(=O)N[C@@H](Cc1ccc(O)cc1)C(=O)N[C@@H](CCCNC(=N)N)C(=O)N[C@@H](CCCCN)C(=O)N[C@H](C(=O)N[C@@H](CC(C)C)C(=O)N[C@@H](C)C(=O)N[C@@H](CCC(N)=O)C(=O)N[C@@H](CC(C)C)C(=O)N[C@@H](CCCCN)C(=O)N[C@@H](C)C(=O)N[C@@H](CCCNC(=N)N)C(=O)N[C@@H](CCC(N)=O)C(=O)N[C@@H](CC(=O)O)C(=O)N[C@H](C(=O)N[C@@H](CC(C)C)C(=O)N[C@@H](CO)C(=O)N[C@H](CCCNC(=N)N)C(N)=O)[C@@H](C)CC)C(C)C)[C@@H](C)O
B2: Trans-3-hexenoyl-YADAIFTDSYRKVLAQLKARQDILAR-NH2 (SEQ ID NO: 20) (peptide)
peptide: YADAIFTDSYRKVLAQLKARQDILAR
HELM: PEPTIDE1{[CC/C=C/CC(=O)[*:2]].Y.A.D.A.I.F.T.D.S.Y.R.K.V.L.A.Q.L.K.A.R.Q.D.I.L.A.R.[am]}$$$$V2.0
SMILES: CC/C=C/CC(=O)N[C@@H](Cc1ccc(O)cc1)C(=O)N[C@@H](C)C(=O)N[C@@H](CC(=O)O)C(=O)N[C@@H](C)C(=O)N[C@H](C(=O)N[C@@H](Cc1ccccc1)C(=O)N[C@H](C(=O)N[C@@H](CC(=O)O)C(=O)N[C@@H](CO)C(=O)N[C@@H](Cc1ccc(O)cc1)C(=O)N[C@@H](CCCNC(=N)N)C(=O)N[C@@H](CCCCN)C(=O)N[C@H](C(=O)N[C@@H](CC(C)C)C(=O)N[C@@H](C)C(=O)N[C@@H](CCC(N)=O)C(=O)N[C@@H](CC(C)C)C(=O)N[C@@H](CCCCN)C(=O)N[C@@H](C)C(=O)N[C@@H](CCCNC(=N)N)C(=O)N[C@@H](CCC(N)=O)C(=O)N[C@@H](CC(=O)O)C(=O)N[C@H](C(=O)N[C@@H](CC(C)C)C(=O)N[C@@H](C)C(=O)N[C@@H](CCCNC(=N)N)C(N)=O)[C@@H](C)CC)C(C)C)[C@@H](C)O)[C@@H](C)CC
B3: Trans-3-hexenoyl-Y-A-D-A-I-F-T-D-S-Y-R-K-V-L-A-Q-L-O-A-R-Q-D-I-L-S-r-NH2 (SEQ ID NO: 24) (peptide)
peptide: YADAIFTDSYRKVLAQLXARQDILSX
HELM: PEPTIDE1{[CC/C=C/CC(=O)[*:2]].Y.A.D.A.I.F.T.D.S.Y.R.K.V.L.A.Q.L.[Orn].A.R.Q.D.I.L.S.[dR].[am]}$$$$V2.0
SMILES: CC/C=C/CC(=O)N[C@@H](Cc1ccc(O)cc1)C(=O)N[C@@H](C)C(=O)N[C@@H](CC(=O)O)C(=O)N[C@@H](C)C(=O)N[C@H](C(=O)N[C@@H](Cc1ccccc1)C(=O)N[C@H](C(=O)N[C@@H](CC(=O)O)C(=O)N[C@@H](CO)C(=O)N[C@@H](Cc1ccc(O)cc1)C(=O)N[C@@H](CCCNC(=N)N)C(=O)N[C@@H](CCCCN)C(=O)N[C@H](C(=O)N[C@@H](CC(C)C)C(=O)N[C@@H](C)C(=O)N[C@@H](CCC(N)=O)C(=O)N[C@@H](CC(C)C)C(=O)N[C@@H](CCCN)C(=O)N[C@@H](C)C(=O)N[C@@H](CCCNC(=N)N)C(=O)N[C@@H](CCC(N)=O)C(=O)N[C@@H](CC(=O)O)C(=O)N[C@H](C(=O)N[C@@H](CC(C)C)C(=O)N[C@@H](CO)C(=O)N[C@H](CCCNC(=N)N)C(N)=O)[C@@H](C)CC)C(C)C)[C@@H](C)O)[C@@H](C)CC
B4: Y-a-DAIFTDSYRKVLAQLKARQDIL-aib-R-NH2 (SEQ ID NO: 22) (peptide)
peptide: YXDAIFTDSYRKVLAQLKARQDILXR
HELM: PEPTIDE1{Y.[dA].D.A.I.F.T.D.S.Y.R.K.V.L.A.Q.L.K.A.R.Q.D.I.L.[Aib].R.[am]}$$$$V2.0; N-terminus assumed
SMILES: CC[C@H](C)[C@H](NC(=O)[C@H](C)NC(=O)[C@H](CC(=O)O)NC(=O)[C@@H](C)NC(=O)[C@@H](N)Cc1ccc(O)cc1)C(=O)N[C@@H](Cc1ccccc1)C(=O)N[C@H](C(=O)N[C@@H](CC(=O)O)C(=O)N[C@@H](CO)C(=O)N[C@@H](Cc1ccc(O)cc1)C(=O)N[C@@H](CCCNC(=N)N)C(=O)N[C@@H](CCCCN)C(=O)N[C@H](C(=O)N[C@@H](CC(C)C)C(=O)N[C@@H](C)C(=O)N[C@@H](CCC(N)=O)C(=O)N[C@@H](CC(C)C)C(=O)N[C@@H](CCCCN)C(=O)N[C@@H](C)C(=O)N[C@@H](CCCNC(=N)N)C(=O)N[C@@H](CCC(N)=O)C(=O)N[C@@H](CC(=O)O)C(=O)N[C@H](C(=O)N[C@@H](CC(C)C)C(=O)NC(C)(C)C(=O)N[C@@H](CCCNC(=N)N)C(N)=O)[C@@H](C)CC)C(C)C)[C@@H](C)O
B5: Y-a-D-A-I-F-T-D-S-Y-R-K-V-L-A-Q-L-O-A-R-Q-D-I-L-S-r-NH2 (SEQ ID NO: 23) (peptide)
peptide: YXDAIFTDSYRKVLAQLXARQDILSX
HELM: PEPTIDE1{Y.[dA].D.A.I.F.T.D.S.Y.R.K.V.L.A.Q.L.[Orn].A.R.Q.D.I.L.S.[dR].[am]}$$$$V2.0; N-terminus assumed
SMILES: CC[C@H](C)[C@H](NC(=O)[C@H](C)NC(=O)[C@H](CC(=O)O)NC(=O)[C@@H](C)NC(=O)[C@@H](N)Cc1ccc(O)cc1)C(=O)N[C@@H](Cc1ccccc1)C(=O)N[C@H](C(=O)N[C@@H](CC(=O)O)C(=O)N[C@@H](CO)C(=O)N[C@@H](Cc1ccc(O)cc1)C(=O)N[C@@H](CCCNC(=N)N)C(=O)N[C@@H](CCCCN)C(=O)N[C@H](C(=O)N[C@@H](CC(C)C)C(=O)N[C@@H](C)C(=O)N[C@@H](CCC(N)=O)C(=O)N[C@@H](CC(C)C)C(=O)N[C@@H](CCCN)C(=O)N[C@@H](C)C(=O)N[C@@H](CCCNC(=N)N)C(=O)N[C@@H](CCC(N)=O)C(=O)N[C@@H](CC(=O)O)C(=O)N[C@H](C(=O)N[C@@H](CC(C)C)C(=O)N[C@@H](CO)C(=O)N[C@H](CCCNC(=N)N)C(N)=O)[C@@H](C)CC)C(C)C)[C@@H](C)O

Target: T1, human GRF receptor
Assay: cell-based or functional assay

Row | EC50 as assessed by alkaline phosphatase (AP) induction [nM] | Binder
1 | 2.47 | B1
2 | 0.98 | B2
3 | 1.18 | B3
4 | 0.72 | B4
5 | 1.14 | B5
